Positions of bridges follow the written chain, without caps; N, C: chain ends. Non-standard residues stand in square brackets, D forms with d. dPhe(3,5-F2) = N[C@H](Cc1cc(F)cc(F)c1)C(=O)O; dPhe(4-CN) = N#Cc1ccc(C[C@@H](N)C(=O)O)cc1; dPhe(3-Cl) = N[C@H](Cc1cccc(Cl)c1)C(=O)O; dPhe(2-Cl) = N[C@H](Cc1ccccc1Cl)C(=O)O; dPhe(4-F) = N[C@H](Cc1ccc(F)cc1)C(=O)O; dPhe(2-F) = N[C@H](Cc1ccccc1F)C(=O)O; Orn = NCCC[C@H](N)C(=O)O

B1: Ac-Arg-cyclo(Glu-Arg-D-Phe(3-Cl)-Arg-Trp-Orn)-NH2 (peptide)
peptide: Ac-RER[dPhe(3-Cl)]RW[Orn]-NH2
modifications: lactam 2-7
SMILES: CC(=O)N[C@@H](CCCNC(=N)N)C(=O)N[C@H]1CCC(=O)NCCC[C@@H](C(N)=O)NC(=O)[C@H](Cc2c[nH]c3ccccc23)NC(=O)[C@H](CCCNC(=N)N)NC(=O)[C@@H](Cc2cccc(Cl)c2)NC(=O)[C@H](CCCNC(=N)N)NC1=O
notes: also called No. 99
B2: Ac-Arg-cyclo(Glu-Thr-D-Phe(3-Cl)-Arg-Trp-Orn)-NH2 (peptide)
peptide: Ac-RET[dPhe(3-Cl)]RW[Orn]-NH2
modifications: lactam 2-7
SMILES: CC(=O)N[C@@H](CCCNC(=N)N)C(=O)N[C@H]1CCC(=O)NCCC[C@@H](C(N)=O)NC(=O)[C@H](Cc2c[nH]c3ccccc23)NC(=O)[C@H](CCCNC(=N)N)NC(=O)[C@@H](Cc2cccc(Cl)c2)NC(=O)[C@H]([C@@H](C)O)NC1=O
notes: also called No. 36
B3: Ac-Arg-cyclo(Glu-Thr-D-Phe(2-Cl)-Arg-Trp-Orn)-NH2 (peptide)
peptide: Ac-RET[dPhe(2-Cl)]RW[Orn]-NH2
modifications: lactam 2-7
SMILES: CC(=O)N[C@@H](CCCNC(=N)N)C(=O)N[C@H]1CCC(=O)NCCC[C@@H](C(N)=O)NC(=O)[C@H](Cc2c[nH]c3ccccc23)NC(=O)[C@H](CCCNC(=N)N)NC(=O)[C@@H](Cc2ccccc2Cl)NC(=O)[C@H]([C@@H](C)O)NC1=O
notes: also called No. 32

In one test the target is T1, human melanocortin-4 receptor (human, UniProt P32245 1-332).
T1 construct: whole, on cells; functional assay: HEK293-T-REx-MC4-R cells induced with 0.1 or 10 ng/mL doxycycline; also called hMC4-R; MC4-R
T1 sequence (P32245 whole entry): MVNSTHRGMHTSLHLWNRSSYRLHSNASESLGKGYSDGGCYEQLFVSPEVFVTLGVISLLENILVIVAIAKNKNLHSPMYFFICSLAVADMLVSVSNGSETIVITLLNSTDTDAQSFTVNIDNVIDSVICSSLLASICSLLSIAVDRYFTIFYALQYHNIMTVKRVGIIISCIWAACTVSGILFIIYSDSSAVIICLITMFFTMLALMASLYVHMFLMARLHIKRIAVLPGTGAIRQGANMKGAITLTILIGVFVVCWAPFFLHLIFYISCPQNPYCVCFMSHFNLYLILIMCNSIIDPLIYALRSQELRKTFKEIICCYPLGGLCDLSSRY
Briefly: [I125]-NDP-α-MSH competition, hMC4-R HEK-293 membranes. Here is the method: A competitive inhibition binding assay was performed for exemplified peptides according to the invention using membrane homogenates prepared from HEK-293 cells that express recombinant hMC4-R, hMC3-R, or hMC5-R, and from B-16 mouse melanoma cells (containing endogenous MC1-R). In some instances, HEK-293 cells that express recombinant hMC1-R were employed. Assays were performed in 96 well GF/B Millipore multiscreen filtration plates (MAFB NOB10) pre-coated with 0.5% bovine serum albumin (Fraction V). […] After incubation for 60 minutes at 37° C., the assay mixture was filtered and the membranes washed three times with ice-cold buffer. Filters were dried and counted in a gamma counter for bound radioactivity. […] Each assay was conducted in triplicate and the actual mean values are described, with results less than 0% reported as 0%. Ki values for test peptides of the present invention were determined using Graph-Pad Prism® curve-fitting software.
Consider Ac-REQ[dPhe(2-F)]RW[Orn]-NH2 (lactam 2-7, also called No. 59) [Ac-Arg-cyclo(Glu-Gln-D-Phe(2-F)-Arg-Trp-Orn)-NH2], for which the Ki (as a rule, a dissociation constant, usually derived from enzyme kinetics or from competition with a known ligand) came to 7 nM.
The same measure, in the same setting: for Ac-R[Orn]N[dPhe(4-F)]RWE-NH2 (lactam 2-7, also called No. 70) [Ac-Arg-cyclo(Orn-Asn-D-Phe(4-F)-Arg-Trp-Glu)-NH2] the value was 3 nM; for Ac-R[Orn]Q[dPhe(2-Cl)]RWE-NH2 (lactam 2-7) [Ac-Arg-cyclo(Orn-Gln-D-Phe(2-Cl)-Arg-Trp-Glu)-NH2], 4 nM.
On the same count and under the same terms, in the case of B1 it was 0.5 nM.
For B2, affinity was put at a Ki of 6 nM.
In turn, Ac-REE[dPhe(4-CN)]RW[Orn]-OH (lactam 2-7) [Ac-Arg-cyclo(Glu-Glu-D-Phe(4-CN)-Arg-Trp-Orn)-OH] gave a Ki of 1090 nM.
The molecule Ac-RES[dPhe(3-Cl)]RW[Orn]-NH2 (lactam 2-7, also called No. 35) [Ac-Arg-cyclo(Glu-Ser-D-Phe(3-Cl)-Arg-Trp-Orn)-NH2] came in with a Ki of 10 nM.
Molecule Ac-REN[dPhe(3,5-F2)]RW[Orn]-NH2 (lactam 2-7, also called No. 76) [Ac-Arg-cyclo(Glu-Asn-D-Phe(3,5-diF)-Arg-Trp-Orn)-NH2] displayed a Ki of 20 nM.
The same measure, in the same setting: for Ac-REN[dPhe(4-CN)]RW[Orn]-OH (lactam 2-7, also called No. 85) [Ac-Arg-cyclo(Glu-Asn-D-Phe(4-CN)-Arg-Trp-Orn)-OH] the value was 64 nM; for B3, 11 nM.

For the next test, the target named is T1, human melanocortin-4 receptor. Briefly: cell-based or functional assay.
As to Ac-REQ[dPhe(2-F)]RW[Orn]-NH2 (lactam 2-7, also called No. 59) [Ac-Arg-cyclo(Glu-Gln-D-Phe(2-F)-Arg-Trp-Orn)-NH2], the “EC50, cAMP, 0.1 ng/mL Doxycycline” value came out at 0.6 nM; the “EC50, cAMP, 10 ng/mL Doxycycline” value was determined as 0.1 nM; the “Intrinsic Activity, cAMP, 0.1 ng/mL Doxycycline” value was 90%; the “Intrinsic Activity, cAMP, 10 ng/mL Doxycycline” value came out at 98%.
For Ac-R[Orn]N[dPhe(4-F)]RWE-NH2 (lactam 2-7, also called No. 70) [Ac-Arg-cyclo(Orn-Asn-D-Phe(4-F)-Arg-Trp-Glu)-NH2], the “EC50, cAMP, 0.1 ng/mL Doxycycline” value was 0.4 nM; the “EC50, cAMP, 10 ng/mL Doxycycline” value came out at 0.1 nM; the “Intrinsic Activity, cAMP, 0.1 ng/mL Doxycycline” value was determined as 64%.
For the molecule Ac-R[Orn]Q[dPhe(2-Cl)]RWE-NH2 (lactam 2-7) [Ac-Arg-cyclo(Orn-Gln-D-Phe(2-Cl)-Arg-Trp-Glu)-NH2], the “EC50, cAMP, 0.1 ng/mL Doxycycline” value was found to be 0.39 nM; the “EC50, cAMP, 10 ng/mL Doxycycline” value was determined as 0.07 nM; the “Intrinsic Activity, cAMP, 0.1 ng/mL Doxycycline” value worked out at 83%; the “Intrinsic Activity, cAMP, 10 ng/mL Doxycycline” value turned out to be 101%.
Turning to B1, the “EC50, cAMP, 10 ng/mL Doxycycline” value was 0.14 nM; the “Intrinsic Activity, cAMP, 0.1 ng/mL Doxycycline” value amounted to 32%; the “Intrinsic Activity, cAMP, 10 ng/mL Doxycycline” value turned out to be 94%.
For the molecule B2, the “EC50, cAMP, 10 ng/mL Doxycycline” value worked out at 1 nM; the “Intrinsic Activity, cAMP, 0.1 ng/mL Doxycycline” value was 8%; the “Intrinsic Activity, cAMP, 10 ng/mL Doxycycline” value is 89%.
For Ac-REE[dPhe(4-CN)]RW[Orn]-OH (lactam 2-7) [Ac-Arg-cyclo(Glu-Glu-D-Phe(4-CN)-Arg-Trp-Orn)-OH], the “EC50, cAMP, 10 ng/mL Doxycycline” value worked out at 269 nM; the “Intrinsic Activity, cAMP, 0.1 ng/mL Doxycycline” value came to 2%; the “Intrinsic Activity, cAMP, 10 ng/mL Doxycycline” value worked out at 69%.
In the case of Ac-RES[dPhe(3-Cl)]RW[Orn]-NH2 (lactam 2-7, also called No. 35) [Ac-Arg-cyclo(Glu-Ser-D-Phe(3-Cl)-Arg-Trp-Orn)-NH2], the “EC50, cAMP, 10 ng/mL Doxycycline” value was 1 nM; the “Intrinsic Activity, cAMP, 0.1 ng/mL Doxycycline” value is 6%; the “Intrinsic Activity, cAMP, 10 ng/mL Doxycycline” value worked out at 84%.
With Ac-REN[dPhe(3,5-F2)]RW[Orn]-NH2 (lactam 2-7, also called No. 76) [Ac-Arg-cyclo(Glu-Asn-D-Phe(3,5-diF)-Arg-Trp-Orn)-NH2], the “EC50, cAMP, 0.1 ng/mL Doxycycline” value was determined as 3 nM; the “EC50, cAMP, 10 ng/mL Doxycycline” value was determined as 0.135 nM; the “Intrinsic Activity, cAMP, 0.1 ng/mL Doxycycline” value came to 53%; the “Intrinsic Activity, cAMP, 10 ng/mL Doxycycline” value was 85%.
Take Ac-REN[dPhe(4-CN)]RW[Orn]-OH (lactam 2-7, also called No. 85) [Ac-Arg-cyclo(Glu-Asn-D-Phe(4-CN)-Arg-Trp-Orn)-OH]: the “EC50, cAMP, 0.1 ng/mL Doxycycline” value was found to be 15 nM; the “EC50, cAMP, 10 ng/mL Doxycycline” value came to 0.707 nM; the “Intrinsic Activity, cAMP, 0.1 ng/mL Doxycycline” value came out at 36%; the “Intrinsic Activity, cAMP, 10 ng/mL Doxycycline” value turned out to be 94%.
As to B3, the “EC50, cAMP, 0.1 ng/mL Doxycycline” value was 18 nM; the “EC50, cAMP, 10 ng/mL Doxycycline” value was 0.543 nM; the “Intrinsic Activity, cAMP, 0.1 ng/mL Doxycycline” value came to 34%; the “Intrinsic Activity, cAMP, 10 ng/mL Doxycycline” value amounted to 96%.

For the origin of these results see patent publication US20100311648A1 (AstraZeneca / MedImmune, published 2010).
